Target: Rac1 expressed as an N-terminal GST-fusion protein (Bos taurus (Bovine), UniProt P62998 1-189)
Assay: GST pull-down, anti-FLAG Western blot
Experimental: Each cell lysate was subjected to a pull-down assay for detecting the binding of the hj03796 DH/PH, or the proto-Db1 DH/PH, to a Rho family protein. 300 μL of each cell lysate, 20 μL of Glutathione Sepharose 4B in the lysis buffer, and 100 μL of the lysis buffer were mixed. Each sample was prepared in such a way that the final concentration of MgCl₂ and dithiothreitol (DTT) was 1 mM. After reacting at 4° C. for 1 hour with rotating by rotator, each sample washed three times with 1 mL of cold lysis buffer (the final concentration of MgCl₂ was 1 mM) by centrifigation at 1,000 rpm for 15 seconds at 4° C. After washing and removing the supernatant, the Glutathione Sepharose 4B was added with 40 μL of a solution that was prepared by mixing SDS-PAGE sample buffer (the same composition as in Example 2) with an equal volume of the lysis buffer. After that, it was mixed with a mixer and subjected to a heat treatment at 100° C. for 5 minutes, to prepare a sample for electrophoresis. SDS-polyacrylamide gel electrophoresis was carried out, and then the gel was equilibrated for 5 minutes or more in a blotting buffer (the same composition as in Example 2). The proteins were transferred onto a PVDF membrane. After blotting, the PVDF membrane was subjected to blocking at 4° C. overnight, in TBS-T+BA (the same composition as in Example 2). […]

B1: proto-Db1 DH/PH (C-terminal FLAG-tagged protein) (other)
chain: MAVLKNHVLNELIQTERVYVRELYTVLLGYRAEMDNPEMFDLMPPLLRNKKDILFGNMAEIYEFHNDIFLSSLENCAHAPERVGPCFLERKDDFQMYAKYCQNKPRSETIWRKYSECAFFQECQRKLKHRLRLDSYLLKPVQRITKYQLLLKELLKYSKDCEGSALLKKALDAMLDLLKSVNDSMHQIAINGYIGNLNELGKMIMQGGFSVWIGHKKGATKMKDLARFKPMQRHLFLYEKAIVFCKRRVESGEGSDRYPSYSFKHCWKMDEVGITEYVKGDNRKFEIWYGEKEEVYIVQASNVDVKMTWLKEIRNILLKQ
notes: Positive control; also called DH/PH domain of proto Db1; deletion mutant of proto-Db1; not shown: C-terminal FLAG tag of vector pFLAG-CMV5a
binding result: no binding
